For assay [1], the target named is T1, human Myl9-His (human, UniProt P24844 2-172, limits assumed).
T1 construct: Made in E. coli; the GST tag was cleaved with PreScission Protease
T1 sequence: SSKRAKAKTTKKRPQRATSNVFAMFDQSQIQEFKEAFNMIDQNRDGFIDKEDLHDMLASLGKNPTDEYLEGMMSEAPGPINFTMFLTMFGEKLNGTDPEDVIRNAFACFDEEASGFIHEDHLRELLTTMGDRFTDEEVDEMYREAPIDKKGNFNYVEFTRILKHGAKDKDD
The assay is described as follows: ELISA, human Myl9-His coated, anti-mouse IgG-HRP. As for the experimental part:
(§1) The binding ability against mouse/human Myl9 was evaluated following the steps below by ELISA. Mouse Myl3-His, mouse Myl9-His, human Myl3-His, and human Myl9-His were coated onto the wells of a 96-well plate (Nunc). After an overnight incubation at 4° C., the wells were blocked at room temperature for one hour with 1× Block Ace (DS Pharma Biomedical Co., Ltd.). After washing three times with 0.02% Tween 20/PBS, ten serial dilutions by four folds of Antibody A were made from a concentration of 10 μg/mL and added to the wells. After incubation at room temperature for one hour and washing three times, horseradish peroxidase-labeled anti-mouse IgG antibody (Jackson ImmunoResearch Laboratories) was added, and this was incubated at […] temperature for one hour. After washing 5 times, TMBZ (3,3′,5,5′-tetramethylbenzidine) solution was added to the wells, and this was incubated for 5-20 minutes at room temperature. An equal amount of reaction quenching solution (2N H₂SO₄) was added to the wells, and absorbance at 450 nm was read with a microplate reader (PerkinElmer).

The target in the next assay is T2, mouse Myl12b-His (mouse, UniProt Q3THE2 1-172, limits assumed).
T2 construct: Made in E. coli; GST tag cleaved with PreScission Protease; DTT-treated monomer
T2 sequence: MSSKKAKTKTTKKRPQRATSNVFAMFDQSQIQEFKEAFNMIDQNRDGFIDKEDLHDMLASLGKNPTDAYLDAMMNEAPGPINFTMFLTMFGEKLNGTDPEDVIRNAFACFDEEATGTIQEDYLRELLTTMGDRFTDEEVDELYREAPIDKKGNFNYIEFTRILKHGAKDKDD
The assay is described as follows: ELISA, mouse Myl12b-His coated, anti-mouse IgG-HRP. The protocol: (§2) The binding ability of Antibody A against mouse/human Myl12a and Myl12b was evaluated following the steps below by ELISA. Mouse Myl3-His, mouse Myl9-His, mouse Myl12a-His, mouse Myl12b-His, human Myl3-His, human Myl9-His, human Myl12a-His, and human Myl12b-His were coated onto the wells of a 96-well plate (Nunc). After an overnight incubation at 4° C., the wells were blocked at room temperature for one hour with 1× Block Ace (DS Pharma Biomedical Co., Ltd.). After washing three times with 0.02% Tween 20/PBS, eleven serial dilutions by four folds of Antibody A were made from a concentration of 10 μg/mL and added to the wells. After incubation at room temperature for one hour and washing three times, horseradish peroxidase-labeled anti-mouse IgG antibody (Jackson ImmunoResearch Laboratories) was added, and this was incubated at room temperature for one hour. After washing 5 times, TMBZ (3,3′,5,5′-tetramethylbenzidine) solution was added to the wells, and this was incubated for 5-20 minutes at room temperature. An equal amount of reaction quenching solution (2N H₂SO₄) was added to the wells, and absorbance at […] was read with a microplate reader (Thermo Scientific).

For assay [2], the target named is T3, mouse/human Myl9 peptide-BSA (mouse and human (common sequence), added C-terminal Cys coupled to maleimide-activated BSA).
T3 construct: Synthetic peptide conjugated to bovine serum albumin
T3 peptide: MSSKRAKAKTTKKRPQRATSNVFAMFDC
The assay is described as follows: ELISA, mouse/human Myl9 peptide-BSA coated, hybridoma supernatant. As for the experimental part:
ELISA employing mouse/human Myl9 peptide-BSA was carried out according to the following steps. Mouse/human Myl9 peptide-BSA was coated onto the wells of a 96-well plate (Num). After an overnight incubation at 4° C., the wells were blocked at room temperature for one hour with 1× Block Ace (DS Pharma Biomedical Co., Ltd.). After washing three times with 0.02% Tween 20/PBS, the culture supernatant of said fused cells was added to the wells. After incubation at room temperature for one hour and washing three times, horseradish peroxidase-labeled anti-mouse IgG antibody (Jackson ImmunoResearch Laboratories) was added, and this was incubated at room temperature for one hour. After washing 5 times, TMBZ (3,3′,5,5′-tetramethylbenzidine) solution was added to the wells, and this was incubated for 5-20 minutes at room temperature. An equal amount of reaction quenching solution (2N H₂SO₄) was added to the wells, and absorbance at 450 nm was read with a microplate reader (PerkinElmer).

The next assay concerns the target T4, mouse Myl9-His (mouse, UniProt Q9CQ19 2-172, limits assumed).
T4 construct: Made in E. coli; the GST tag was cleaved with PreScission Protease and leftover vector residues are not described
T4 sequence: T1 sequence with S74N
The assay is described as follows: ELISA, mouse Myl9-His coated, anti-mouse IgG-HRP. The protocol: as §1

The target of assay [3] is T5, human Myl12a-His (human, UniProt P19105 1-171).
T5 construct: Made in E. coli; GST tag cleaved with PreScission Protease; DTT-treated monomer
T5 sequence: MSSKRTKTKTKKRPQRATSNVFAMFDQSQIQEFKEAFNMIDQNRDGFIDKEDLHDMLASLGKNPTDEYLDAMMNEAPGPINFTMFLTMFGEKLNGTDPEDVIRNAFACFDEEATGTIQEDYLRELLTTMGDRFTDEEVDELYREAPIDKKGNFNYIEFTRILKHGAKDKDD
The assay is described as follows: ELISA, human Myl12a-His coated, anti-mouse IgG-HRP. The protocol:
as §2

For another assay, the target named is T6, mouse Myl12a-His (mouse, UniProt Q3THE2 1-172 at identity 1.00), limits assumed).
T6 construct: Made in E. coli; GST tag cleaved with PreScission Protease; DTT-treated monomer
T6 chain: T2 sequence with K5R, L61M, A68E, T115I
The assay is described as follows: ELISA, mouse Myl12a-His coated, anti-mouse IgG-HRP. The protocol:
as §2

Assay [4] deals with T7, human Myl3-His (human, UniProt P08590 2-195, limits assumed).
T7 construct: Made in E. coli; the GST tag was cleaved with PreScission Protease
The assay is described as follows: ELISA, human Myl3-His coated, anti-mouse IgG-HRP. As for the experimental part: as §1
(In general: An ELISA detects its analyte on a solid surface through an enzyme-linked reagent.)

Assay [5] addresses T8, human Myl12b-His (human, UniProt O14950 1-172).
T8 construct: Made in E. coli; GST tag cleaved with PreScission Protease; DTT-treated monomer
T8 sequence: T2 sequence
The assay is described as follows: ELISA, human Myl12b-His coated, anti-mouse IgG-HRP. The protocol:
as §2

The target in the next assay is T9, mouse Myl3-His (mouse, UniProt P09542 2-204, limits assumed).
T9 construct: Made in E. coli; the GST tag was cleaved with PreScission Protease
The assay is described as follows: ELISA, mouse Myl3-His coated, anti-mouse IgG-HRP. The protocol: as §1

Assay [6] deals with T7, human Myl3-His. The assay is described as follows: ELISA, human Myl3-His coated, pH 5.5 buffer, anti-Flag-HRP. As for the experimental part:
(§3) Evaluation of binding between human Myl9, Myl12a and Myl12b and human CD69 extracellular region protein was carried out by ELISA. Human Myl3-His, human Myl9-His, human Myl12a-His and human Myl12b-His prepared in Example 5 were coated onto the wells of a 96-well plate (Nunc), respectively. After an overnight incubation at 4° C., the wells were blocked at room temperature for one hour with 1× Block Ace (DS Pharma Biomedical Co., Ltd.). After washing three times with 0.02% Tween 20/PBS, six serial dilutions by three folds of 3× Flag-human CD69 EC protein were made from a concentration of 10 μg/mL by 50 mM NaOAc (pH 5.5)/150 mM NaCl/0.02% Tween 20 and added to the wells. After incubation at room temperature for one and half hour and washing three times with 50 mM NaOAc (pH 5.5)/150 mM NaCl/0.02% Tween 20, horseradish peroxidase-labeled anti-Flag (M2) antibody (SIGMA) was added, and this was incubated at room temperature for one hour. After washing 5 times, TMBZ (3,3′,5,5′-tetramethylbenzidine) solution was added to the wells, and this was incubated for 5-20 minutes at room temperature. An equal amount of reaction quenching solution (2N H₂SO₄) was added to the wells, and absorbance at 450 nm was read with a microplate reader (Thermo Scientific).

Assay [7] has as its target T1, human Myl9-His. The assay is described as follows: ELISA, human Myl9-His coated, anti-Flag-HRP. As for the experimental part:
as §3

Assay [8] concerns the target T5, human Myl12a-His. The assay is described as follows: ELISA, human Myl12a-His coated, anti-Flag-HRP. As for the experimental part: as §3
For assay [9], the target named is T8, human Myl12b-His. The assay is described as follows: ELISA, human Myl12b-His coated, anti-Flag-HRP. The protocol:
as §3

Substitutions are numbered along the chain they refer to.

T7 sequence (P08590 2-195 limits assumed): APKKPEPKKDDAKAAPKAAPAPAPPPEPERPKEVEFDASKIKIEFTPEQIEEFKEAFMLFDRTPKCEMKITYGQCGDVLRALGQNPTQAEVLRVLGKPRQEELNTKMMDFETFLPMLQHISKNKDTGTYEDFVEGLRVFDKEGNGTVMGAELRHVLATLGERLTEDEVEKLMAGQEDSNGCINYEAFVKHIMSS
T9 sequence (P09542 2-204 limits assumed): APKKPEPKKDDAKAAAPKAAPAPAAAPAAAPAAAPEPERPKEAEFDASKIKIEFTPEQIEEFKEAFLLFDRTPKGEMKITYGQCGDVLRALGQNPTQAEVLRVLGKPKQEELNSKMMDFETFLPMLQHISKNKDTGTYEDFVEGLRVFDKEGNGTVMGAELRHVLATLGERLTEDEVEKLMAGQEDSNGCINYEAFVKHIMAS

B1: mouse anti-mouse/human Myl9 monoclonal antibody (Antibody A) (antibody, V domains shown)
VH: QVQLQQSGAEVVRPGASVTLSCKASGYTFTDYEMHWVKQTPVHGLEWIGAIDPETGGTAYNQKFKGKAILTADKSSNTAYMELRSLTSEDSAVYYCTDYDYDGFAYWGQGTLVTVSA
VL: DVVMTQTPLSLPVSLGDQASISCRSSQSLVHSNGNTYLHWYLQKPGRSPKLLISKVSNRFSGVPDRFSGSGSGTDFTLKITRVEAEDLGVYFCSQNTHVPPLTFGAGTKLELK
notes: Hybridoma antibody purified with Protein A; isotype printed as 'IgG2e, kappa'; also called mAb A; anti-mouse/human Myl9 antibody
For B1, the binding result (in the assay with human Myl9-His [1]; with mouse Myl12b-His; in assay [2]; in the assay with mouse Myl9-His; in the assay with human Myl12a-His [3]; with mouse Myl12a-His) was “binds” in each case. Also, the binding result is “no binding (tested: 10 µg/mL)” with human Myl3-His [4], “binds” with human Myl12b-His [5] and “no binding (tested: 10 µg/mL)” with mouse Myl3-His.

B2: 3× Flag-human CD69 EC protein (receptor, not shown: small tags and cut ends)
chain: GQYNCPGQYTFSMPSDSHVSSCSEDWVGYQRKCYFISTVKRSWTSAQNACSEHGATLAVIDSEKDMNFLKRYAGREEHWVGLKKEPGHPWKWSNGKEFNNWFNVTGSDKCVFLKNTEVSSMECEKNLYWICNKPYK
notes: Made in Expi293F cells and purified on Anti-Flag M2 gel; The dimerized protein was collected by Superdex200 or Superdex75; also called human CD69 extracellular region protein; extracellular region of human CD69
B2: the binding result is given as “no binding (tested: 10 µg/mL)” with human Myl3-His [6], “binds” in the assay with human Myl9-His [7], “binds” with human Myl12a-His [8] and “binds” in the assay with human Myl12b-His [9].

These data come from patent US20190002588A1 (NATIONAL UNIVERSITY CORPORATION CHIBA UNIVERSITY, published 2019).
